In the series the test system is MS2 coat protein. The experiment in a line: apparent KD of MS2 coat protein; higher = weaker reporter binding. Particulars: Eterna round: R107. On the procedure:
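RNA-MaP round R107: designed RNA switches with theophylline, tryptophan, arginine or FMN aptamers are transcribed on-chip within common flanks. They are titrated with SNAP-549-labelled MS2 coat protein in RNA-MaP buffer (100 mM Tris pH 7.5, 80 mM KCl, 4 mM MgCl2), without ligand or with the indicated ligand. Median apparent KD per design.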

[1] abbreviates: input ligand: theophylline 20 uM.
Where [2] appears, read: input ligand: theophylline 2 mM.
Setting [3] is: input ligand: tryptophan 2.4 mM.

With “AAAAUAUAGACGGCCGCCACUAUAAUCAUGAGGAACAUGAGGAUCACCCAUGUAUGAGGAUCACCUAGGACCGGGUCAUAUAAAA [#24 Exclusion Tryptophan B]”, the “apparent KD of MS2 coat protein” value is 14.2 nM (input ligand: arginine 13.2 mM); 23.6 nM (input ligand: none); 31.3 nM under setting [1]; 29.5 nM under setting [2]; 25.6 nM under setting [3].
As for “AAACAUGACAUGGAUACCAGACACAUGAGGAUCACCCAUGUUGAGGAUCACCCAUGUCCCGUCCCUUGGCAGCCAGCAUGAGGAU [Exclusion Theophylline B 2]”, the “apparent KD of MS2 coat protein” value (input ligand: arginine 13.2 mM) came to 8.96 nM, the “apparent KD of MS2 coat protein” value under setting [1] was 11.6 nM and the “apparent KD of MS2 coat protein” value under setting [3] is 8.83 nM.
As for “AAACAUGAGGAUCACCCAUGUUCUCCUGUCCGAGGACCGGUACGGCCGCCACUCGGUUCUCGGGAGGAUGGUCAAAGACUAUCCA [Omei Trp A SS B v8]”, the “apparent KD of MS2 coat protein” value reads like this: (input ligand: arginine 13.2 mM) 12 nM; under setting [1], 16.9 nM; under setting [2], 13.5 nM.
For “AAACAUGAGGCGGCCGCCACUGUAUGAACAUGAGGAUCACCCAUGUAUGUACCCAUGUGUGUACACAGGACCGGGCCAUGUGGAU [Exclusion Tryptophan B 4]” the same measures were 24.8 nM, 32.3 nM and 27.8 nM.
In the case of “AAACGAGAGACAGAUACCAGCGCAGGAACGGAGUAUGGUGACAUGAGGAUCACCCAUGUGCGCCCUUGGCAGCUGAGCCGUAUUG [theeternabot_exclusion_MS2_Theo_B_37]”, the “apparent KD of MS2 coat protein” value by setting is: (input ligand: arginine 13.2 mM) 30 nM; under setting [1], 43.3 nM; under setting [3], 33.5 nM.
Take “AAACUGGGUGUAAAAUAAAUAAUCACUGAUACCAGACUAUUUUAUGUCCCUUGGCAGCAGAAACAUGAGGAUCACCCAUGUAAUA [JR_Nu_ExcTheophyA_Sub025]”: the “apparent KD of MS2 coat protein” value (input ligand: arginine 13.2 mM) is 21.2 nM, the “apparent KD of MS2 coat protein” value under setting [1] stood at 25.3 nM and the “apparent KD of MS2 coat protein” value under setting [3] was found to be 26.7 nM.
On to “AAAGUUGAUGAGUUGUGUUUGUGUUCGGAAGGAGCGGGAAUUAUCUCAGGUAGGUCGCCGAACAUGAGGAUCACCCAUGUAUAAA [XArg-A 18 NuV2 original #dotplot2>1]”, for which the “apparent KD of MS2 coat protein” value (input ligand: arginine 13.2 mM) was found to be 40.2 nM; the “apparent KD of MS2 coat protein” value (input ligand: none) stood at 98.7 nM; the “apparent KD of MS2 coat protein” value under setting [1] is 80.1 nM; the “apparent KD of MS2 coat protein” value under setting [2] was 206 nM; the “apparent KD of MS2 coat protein” value under setting [3] turned out to be 82.6 nM.
“AAAUCAGUCUGAAGGAGCGUCACAUGAGGAUCACCCAUGUACAUGAGGAUCACCCAUGUGUGACAGGUAGGUCGCAGAGGAUACC [Exclusion Arginine B GF 4]”: the “apparent KD of MS2 coat protein” value is 125 nM (input ligand: arginine 13.2 mM); 169 nM (input ligand: none); 168 nM under setting [1]; 207 nM under setting [2]; 213 nM under setting [3].
With “AAAUGAAGGCGAAGGAGCGCGAACAUGAGGAUCACCCAUGUGUAUGUAUGUAGUCAUGUAUCGCAGGUAGGUCGCGCUGUUACAU [Exclusion Arginine B]”, the “apparent KD of MS2 coat protein” value by setting is: (input ligand: arginine 13.2 mM) 106 nM; (input ligand: none) 278 nM; under setting [1], 276 nM; under setting [2], 352 nM; under setting [3], 271 nM.
Regarding “AAAUGAAGGCGAAGGAGCGGGAACAUGAGGAUCACCCAUGUGUAUGUAUGUAGUCAUGUAUCUCAGGUAGGUCGCGCUGUUACAU [Exclusion Arginine B 2]”, the “apparent KD of MS2 coat protein” value (input ligand: arginine 13.2 mM) was 80 nM; the “apparent KD of MS2 coat protein” value (input ligand: none) is 185 nM; the “apparent KD of MS2 coat protein” value under setting [1] came out at 178 nM; the “apparent KD of MS2 coat protein” value under setting [2] is 207 nM; the “apparent KD of MS2 coat protein” value under setting [3] was 106 nM.
For the sequence “AAAUUAUCGGCGGCCGCCACUAGAGUUAGGCUUAUGUACUGGGUAACAUGAGGAUCACCCAUGUAUAGGACCGGGCCAUAAUAAA [Same State - Tryptophan B (Freestyle 4)]”, the “apparent KD of MS2 coat protein” value by setting is: (input ligand: arginine 13.2 mM) 38.7 nM; (input ligand: none) 55.2 nM; under setting [1], 88.9 nM; under setting [2], 57.5 nM; under setting [3], 72.1 nM.
Take “AACAUCACAACGGCCGCCACUGCACAUGACAACAUGAGGAUCACCCAUGUGGAUCACCCAUGUCCCAGGACCGGGUUAUGAGGAU [Same State - Tryptophan B #1]”: the “apparent KD of MS2 coat protein” value came to 23.7 nM (input ligand: arginine 13.2 mM), 39.9 nM under setting [1] and 33.6 nM under setting [2].
On to “AACAUGAGGAUCACCCAUGUAUUGGGUGAUACCAGCCUGAAUAAUGGCCCUUGGCAGCACCGCGCUAACUUUAUGUCUGCGAAAC [Erterean]”, for which the “apparent KD of MS2 coat protein” value runs as follows: (input ligand: arginine 13.2 mM) 87.3 nM; under setting [1], 456 nM; under setting [3], 118 nM.
“AACAUGAGGAUCACCCAUGUCCUCGUGAUUCGAGGACCGGUACGGCCGCCACUCGGUCCUCGCGAGGAGGAGUCAAAGACUCCAA [Omei Trp A SS A v1]”: the “apparent KD of MS2 coat protein” value reads like this: (input ligand: arginine 13.2 mM) 98 nM; (input ligand: none) 144 nM; under setting [1], 229 nM; under setting [2], 204 nM; under setting [3], 137 nM.
For “AACAUGAGGAUCACCCAUGUGUCCUCGAAACGAGGACCGGUACGGCCGCCACUCGAAGCAUGUUGACGAAAAGUCAGCAUGCAAA [Mat - Exclusion - Trytophan A - D14]”, the “apparent KD of MS2 coat protein” value was 96.4 nM (input ligand: arginine 13.2 mM), 292 nM under setting [1] and 353 nM under setting [2].
As to “AACAUGGGAUUAAAAUAAAUAAUAACUGAUACCAGACUAUAUAAUGUCCCUUGGCAGCAGAUACAUGAGGAUCACCCAUGUAUUA [JR_Nu_ExcTheophyA_Sub023]”, the “apparent KD of MS2 coat protein” value turned out to be 12.2 nM (input ligand: arginine 13.2 mM), 14.9 nM under setting [1] and 12.8 nM under setting [3].
Take “AACUGAAGCACCUUAUGCGGCGGCAAAACCCGAGGACCGGUACGGCCGCCACUCGAGUCGCAACAUGAGGAUCACCCAUGUGUAU [theeternabot_exclusion_MS2_Trp_A_30]”: the “apparent KD of MS2 coat protein” value (input ligand: arginine 13.2 mM) is 32.5 nM, the “apparent KD of MS2 coat protein” value under setting [1] is 55.8 nM and the “apparent KD of MS2 coat protein” value under setting [2] was found to be 78.8 nM.
Take “AAGAAAACAUGAGCAAAGCUCAUGUGCGAAGGAGCGGCGGAAACGCCAGGUAGGUCGCGCACAUGAGCAUCAGCCAUGUGUAUCA [Omei Arginine B SS A v3]”: the “apparent KD of MS2 coat protein” value (input ligand: arginine 13.2 mM) was 43.5 nM; the “apparent KD of MS2 coat protein” value (input ligand: none) amounted to 36.7 nM; the “apparent KD of MS2 coat protein” value under setting [1] was found to be 76.9 nM; the “apparent KD of MS2 coat protein” value under setting [2] came out at 101 nM; the “apparent KD of MS2 coat protein” value under setting [3] came to 19.4 nM.
